B1: Apt1-S double-stranded (1-18 / 19-37) (dsRNA)
RNA 1: GGGAUGGACGACCCACCA
RNA 2: CGGCGAGGUAUCCCAUCCC
B2: RDE (dsDNA)
DNA 1: GTCGTTTGCGGTTTGGGGAAAAAAAAAAAAAAAAA
DNA 2: TCCCCAAACCGCAAACGAC

Key:
Test in all cases: SPR
AML1 Runt domain [1] = molecular target: T1, AML1 Runt domain (UniProt Q01196 1-188)
AML1 Runt domain [2] = molecular target: T1, AML1 Runt domain; remark: listed apart in the source
AML1 Runt domain V170A = AML1 Runt domain V170A (UniProt Q01196 1-188, V170A)
Chain of AML1 Runt domain V170A (Q01196 1-188 V170A): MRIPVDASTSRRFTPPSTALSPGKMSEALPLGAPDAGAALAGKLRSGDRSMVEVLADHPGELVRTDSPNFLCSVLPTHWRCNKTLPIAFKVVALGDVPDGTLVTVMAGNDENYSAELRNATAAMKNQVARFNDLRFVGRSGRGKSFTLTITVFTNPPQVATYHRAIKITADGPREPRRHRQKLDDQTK

T1 sequence (Q01196 1-188): as the sequence (Q01196 1-188 V170A) above, with A170V counted along it

Binder	binding result (AML1 Runt domain [2])	other results
B1		binding signal (AML1 Runt domain [1]): ~20 fold reduction in affinity vs Apt1-S
B2		Kd (AML1 Runt domain [2]): 9.6 ± 0.2 nM; binding result (AML1 Runt domain V170A): binds
GGGAUGGACGACCCACCACGGCGAGGUAUCCCAUCCC (structured_RNA) [Apt1-S]		Kd (AML1 Runt domain [2]): 0.99 ± 0.02 nM; binding result (AML1 Runt domain V170A): binds
GGGAUGGACGACCCACGAAAGCGAGGUAUCCCAUCCC (structured_RNA) [Apt1-S GAAA loop]	binds	
GGGAUGGACGAGCCACCACGGCGAGCUAUCCCAUCCC (structured_RNA) [Apt1-S C12G-G26C]	binds	
GGGAUGGACGACCCACUUUUGCGAGGUAUCCCAUCCC (structured_RNA) [Apt1-S UUUU loop]	binds	
GGGAUGGACGACCCACCACGGCGCGGUAUCCCAUCCC (structured_RNA) [Apt1-S A24C]	binds	
GGGAUGGACGACCCACCACGGCGUGGUAUCCCAUCCC (structured_RNA) [Apt1-S A24U]	binds	

— article PMC3683927
